Data taken from paper doi:10.1101/196097.

Key:
[1] = target: FAM-labeled synthetic peptide corresponding to the 1-9-14 motif of iPLA2β; assay: fluorescence polarisation
[2] = target: FAM-labeled synthetic peptide corresponding to the IQ motif of iPLA2β; assay: fluorescence polarisation
[3] = target: Fluorescein (FAM)-labeled calmodulin T34C (UniProt P0DP23); assay: fluorescence polarisation
[4] = target: Calcium-independent phospholipase A2β, short variant (SH-iPLA2β), wild type (Chinese hamster (cloned from CHO cells)); assay: AUC

| Substance | Kd [1] [nM] | Kd [2] [nM] | Kd [3] [nM] | stoichiometry N [4] |
| --- | --- | --- | --- | --- |
| Calmodulin (from UniProt P0DP23 1-149) (natural protein) | 2500 | 5900 |  |  |
| iPLA2β W695E mutant (from UniProt A0A3L7I2I8 1-807) (enzyme) |  |  | > 1400 |  |
| Calcium-independent phospholipase A2β, short variant (SH-iPLA2β), wild type (from UniProt A0A3L7I2I8 1-807) (enzyme) |  |  | 112 | 2 |
